# Test results taken from PMC8266594 (Nucleic Acids Research, 2021).
# Biological target: the molecule itself
# Experiment: SAXS
row,Protein,stoichiometry N
1,"RnlAΔ1–91 (TBP2-HEPN) truncated RnlA, N-terminally His-tagged (domain or fragment, Escherichia coli, UniProt P52129 92-357, looked up) INPAEFEQVNMVLQGFVETSVLPVLELSADESHIEFREHSRNAHTVVWKIISTSYQDELTVSLHITTGKLQIQGRPLSCYRVFTFNLAALLDLQGLEKVLIRQEDGKANIVQQEVARTYLQTVMADAYPHLHVTAEKLLVSGLCVKLAAPDLPDYCMLLYPELRTIEGVLKSKMSGLGMPVQQPAGFGTYFDKPAAHYILKPQFAATLRPEQINIISTAYTFFNVERHSLFHMETVVDASRMISDMARLMGKATRAWGIIKDLYIV",2
2,"His-RnlA (wild-type RnlA toxin, N-terminally His-tagged) (enzyme) MTIRSYKNLNLVRANIETESRQFIENKNYSIQSIGPMPGSRAGLRVVFTRPGVNLATVDIFYNGDGSTTIQYLTGANRSLGQELADHLFETINPAEFEQVNMVLQGFVETSVLPVLELSADESHIEFREHSRNAHTVVWKIISTSYQDELTVSLHITTGKLQIQGRPLSCYRVFTFNLAALLDLQGLEKVLIRQEDGKANIVQQEVARTYLQTVMADAYPHLHVTAEKLLVSGLCVKLAAPDLPDYCMLLYPELRTIEGVLKSKMSGLGMPVQQPAGFGTYFDKPAAHYILKPQFAATLRPEQINIISTAYTFFNVERHSLFHMETVVDASRMISDMARLMGKATRAWGIIKDLYIV",2
3,"R255A RnlA, N-terminally His-tagged (enzyme, Escherichia coli, UniProt P52129 1-357, looked up) MTIRSYKNLNLVRANIETESRQFIENKNYSIQSIGPMPGSRAGLRVVFTRPGVNLATVDIFYNGDGSTTIQYLTGANRSLGQELADHLFETINPAEFEQVNMVLQGFVETSVLPVLELSADESHIEFREHSRNAHTVVWKIISTSYQDELTVSLHITTGKLQIQGRPLSCYRVFTFNLAALLDLQGLEKVLIRQEDGKANIVQQEVARTYLQTVMADAYPHLHVTAEKLLVSGLCVKLAAPDLPDYCMLLYPELATIEGVLKSKMSGLGMPVQQPAGFGTYFDKPAAHYILKPQFAATLRPEQINIISTAYTFFNVERHSLFHMETVVDASRMISDMARLMGKATRAWGIIKDLYIV",2
4,"D245R RnlA, N-terminally His-tagged (enzyme, Escherichia coli, UniProt P52129 1-357, looked up) MTIRSYKNLNLVRANIETESRQFIENKNYSIQSIGPMPGSRAGLRVVFTRPGVNLATVDIFYNGDGSTTIQYLTGANRSLGQELADHLFETINPAEFEQVNMVLQGFVETSVLPVLELSADESHIEFREHSRNAHTVVWKIISTSYQDELTVSLHITTGKLQIQGRPLSCYRVFTFNLAALLDLQGLEKVLIRQEDGKANIVQQEVARTYLQTVMADAYPHLHVTAEKLLVSGLCVKLAAPDLPRYCMLLYPELRTIEGVLKSKMSGLGMPVQQPAGFGTYFDKPAAHYILKPQFAATLRPEQINIISTAYTFFNVERHSLFHMETVVDASRMISDMARLMGKATRAWGIIKDLYIV",2
